According to article PMC9482650, “Quantitative fragmentomics allow affinity mapping of interactomes” (Nature Communications, 2022):

Assays:
Assay in all cases: holdup assay
Design in all cases: key: below the threshold = too weak to quantify, mostly under pKd 3.1 to 4
Conditions in all cases: plain residues with an end cap or a label only (N-terminal biotin on a linker: ado-ado)
DFNB31_1, Q9P202 = biological target: T1, DFNB31_1, Q9P202
T1 sequence (Q9P202 135-233, limits assumed, looked up): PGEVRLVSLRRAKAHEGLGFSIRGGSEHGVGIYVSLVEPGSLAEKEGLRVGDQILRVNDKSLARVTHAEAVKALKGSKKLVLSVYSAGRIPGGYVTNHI

DLG1_2, Q12959 = biological target: DLG1_2, Q12959
Sequence of DLG1_2, Q12959 (Q12959 314-412): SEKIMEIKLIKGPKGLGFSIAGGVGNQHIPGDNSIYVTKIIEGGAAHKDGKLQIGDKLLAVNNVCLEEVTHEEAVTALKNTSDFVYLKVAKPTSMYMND

DLG4_2, P78352 = biological target: DLG4_2, P78352
Sequence of DLG4_2, P78352 (P78352 155-259): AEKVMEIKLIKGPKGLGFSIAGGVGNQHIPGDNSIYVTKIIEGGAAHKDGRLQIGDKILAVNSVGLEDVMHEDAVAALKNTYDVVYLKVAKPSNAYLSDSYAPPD

FRMPD2_1, Q68DX3 = biological target: FRMPD2_1, Q68DX3
Sequence of FRMPD2_1, Q68DX3 (Q68DX3 770-861): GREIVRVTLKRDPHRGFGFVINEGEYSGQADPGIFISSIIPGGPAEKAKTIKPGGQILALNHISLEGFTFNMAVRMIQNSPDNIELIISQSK

FRMPD2_3, Q68DX3 = biological target: FRMPD2_3, Q68DX3
Sequence of FRMPD2_3, Q68DX3 (Q68DX3 1073-1166): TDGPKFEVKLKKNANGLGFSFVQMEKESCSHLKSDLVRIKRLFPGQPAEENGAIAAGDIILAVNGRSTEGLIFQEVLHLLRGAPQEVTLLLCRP

FRMPD3, Q5JV73 = biological target: FRMPD3, Q5JV73
Sequence of FRMPD3, Q5JV73 (Q5JV73 12-100): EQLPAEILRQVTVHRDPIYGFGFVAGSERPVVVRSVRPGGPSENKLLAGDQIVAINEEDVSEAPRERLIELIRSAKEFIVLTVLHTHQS

FRMPD4, Q14CM0 = biological target: FRMPD4, Q14CM0
Sequence of FRMPD4, Q14CM0 (Q14CM0 67-160): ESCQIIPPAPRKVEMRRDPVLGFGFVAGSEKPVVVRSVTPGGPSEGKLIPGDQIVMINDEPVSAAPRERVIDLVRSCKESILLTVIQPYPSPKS

HTRA2, O43464 = biological target: HTRA2, O43464
Sequence of HTRA2, O43464 (O43464 355-458): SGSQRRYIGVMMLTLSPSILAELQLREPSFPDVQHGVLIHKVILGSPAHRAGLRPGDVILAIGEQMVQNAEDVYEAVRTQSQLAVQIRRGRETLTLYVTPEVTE

IL16_3, Q14005 = biological target: IL16_3, Q14005
Sequence of IL16_3, Q14005 (Q14005 1107-1207): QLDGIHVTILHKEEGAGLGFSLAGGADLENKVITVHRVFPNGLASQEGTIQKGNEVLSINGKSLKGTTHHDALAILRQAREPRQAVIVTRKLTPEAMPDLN

Inadl_10, Q8NI35 = biological target: Inadl_10, Q8NI35
Sequence of Inadl_10, Q8NI35 (Q8NI35 1673-1763): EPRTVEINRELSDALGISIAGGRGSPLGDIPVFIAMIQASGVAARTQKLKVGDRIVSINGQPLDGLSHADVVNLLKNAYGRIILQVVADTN

Inadl_5, Q8NI35 = biological target: Inadl_5, Q8NI35
Sequence of Inadl_5, Q8NI35 (Q8NI35 673-780): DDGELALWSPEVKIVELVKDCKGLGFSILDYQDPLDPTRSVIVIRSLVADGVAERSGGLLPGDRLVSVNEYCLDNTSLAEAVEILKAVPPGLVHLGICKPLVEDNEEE

Inadl_8, Q8NI35 = biological target: Inadl_8, Q8NI35
Sequence of Inadl_8, Q8NI35 (Q8NI35 1425-1530): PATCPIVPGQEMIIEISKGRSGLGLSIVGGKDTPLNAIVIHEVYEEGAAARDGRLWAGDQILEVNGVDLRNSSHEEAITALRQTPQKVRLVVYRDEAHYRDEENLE

LIN7C, Q9NUP9 = biological target: T2, LIN7C, Q9NUP9
T2 sequence (Q9NUP9 88-185, limits assumed, looked up): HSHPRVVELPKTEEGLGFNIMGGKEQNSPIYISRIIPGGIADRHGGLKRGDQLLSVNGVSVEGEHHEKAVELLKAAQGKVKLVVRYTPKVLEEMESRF

LNX1_1, Q8TBB1 = biological target: LNX1_1, Q8TBB1
Sequence of LNX1_1, Q8TBB1 (Q8TBB1 261-371): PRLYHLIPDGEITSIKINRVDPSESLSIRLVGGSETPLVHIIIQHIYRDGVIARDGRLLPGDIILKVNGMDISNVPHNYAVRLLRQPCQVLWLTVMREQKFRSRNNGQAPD

LRRC7, Q96NW7 = biological target: T3, LRRC7, Q96NW7
T3 sequence (Q96NW7 1440-1537, limits assumed, looked up): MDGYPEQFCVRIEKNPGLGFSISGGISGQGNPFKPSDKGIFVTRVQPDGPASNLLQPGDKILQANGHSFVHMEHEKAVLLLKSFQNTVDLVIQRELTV

MAGI1_1, Q96QZ7 = biological target: MAGI1_1, Q96QZ7
Sequence of MAGI1_1, Q96QZ7 (Q96QZ7 1-106): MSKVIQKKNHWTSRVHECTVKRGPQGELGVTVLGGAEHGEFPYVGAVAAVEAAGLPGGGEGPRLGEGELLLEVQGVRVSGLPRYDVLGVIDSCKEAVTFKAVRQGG

MAGI3_2, Q5TCQ9 = biological target: MAGI3_2, Q5TCQ9
Sequence of MAGI3_2, Q5TCQ9 (Q5TCQ9 398-503): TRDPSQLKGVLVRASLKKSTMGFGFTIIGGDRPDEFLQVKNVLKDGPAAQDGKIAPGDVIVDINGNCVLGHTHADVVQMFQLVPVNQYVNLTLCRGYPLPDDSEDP

MPDZ_12, O75970 = biological target: T4, MPDZ_12, O75970
T4 sequence (O75970 1857-1958, limits assumed, looked up): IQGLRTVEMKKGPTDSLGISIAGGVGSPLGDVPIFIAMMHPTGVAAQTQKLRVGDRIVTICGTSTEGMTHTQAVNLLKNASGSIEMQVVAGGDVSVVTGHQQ

NHERF4_1, Q86UT5-2 = biological target: NHERF4_1, Q86UT5-2
Sequence of NHERF4_1, Q86UT5-2 (Q86UT5 other isoform, or with tags, fused parts or gaps): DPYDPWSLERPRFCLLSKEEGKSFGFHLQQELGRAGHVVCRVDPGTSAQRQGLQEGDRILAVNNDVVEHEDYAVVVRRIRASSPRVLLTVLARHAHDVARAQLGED

PDZRN4_1, Q6ZMN7 = biological target: PDZRN4_1, Q6ZMN7
Sequence of PDZRN4_1, Q6ZMN7 (Q6ZMN7 213-318): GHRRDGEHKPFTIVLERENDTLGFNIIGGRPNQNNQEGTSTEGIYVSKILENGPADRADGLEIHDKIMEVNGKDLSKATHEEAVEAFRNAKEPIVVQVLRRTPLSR

PICK1, Q9NRD5 = biological target: PICK1, Q9NRD5
Sequence of PICK1, Q9NRD5 (Q9NRD5 17-115): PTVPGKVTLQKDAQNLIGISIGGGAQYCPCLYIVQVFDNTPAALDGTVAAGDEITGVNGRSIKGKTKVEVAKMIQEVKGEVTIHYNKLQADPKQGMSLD

RHPN1, Q8TCX5 = biological target: T5, RHPN1, Q8TCX5
T5 sequence (Q8TCX5 508-602, limits assumed, looked up): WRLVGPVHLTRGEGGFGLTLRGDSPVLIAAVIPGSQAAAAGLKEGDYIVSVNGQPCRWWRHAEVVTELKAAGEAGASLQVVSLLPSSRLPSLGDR

SCRIB_2, Q14160 = biological target: SCRIB_2, Q14160
Sequence of SCRIB_2, Q14160 (Q14160 857-960): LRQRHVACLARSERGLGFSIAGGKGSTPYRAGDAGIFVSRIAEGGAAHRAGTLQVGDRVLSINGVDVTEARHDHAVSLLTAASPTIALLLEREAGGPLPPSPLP

SHANK1, Q9Y566 = biological target: T6, SHANK1, Q9Y566
T6 sequence (Q9Y566 658-767, limits assumed, looked up): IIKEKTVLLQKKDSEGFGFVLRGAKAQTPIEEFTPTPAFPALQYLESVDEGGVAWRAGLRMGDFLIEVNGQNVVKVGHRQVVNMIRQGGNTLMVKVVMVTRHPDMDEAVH

SNTG2, Q9NY99 = biological target: T7, SNTG2, Q9NY99
T7 sequence (Q9NY99 68-166, limits assumed, looked up): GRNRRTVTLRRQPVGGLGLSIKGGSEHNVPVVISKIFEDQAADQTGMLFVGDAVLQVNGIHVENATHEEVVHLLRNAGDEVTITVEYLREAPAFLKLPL

SYNJ2BP, P57105 = biological target: T8, SYNJ2BP, P57105
T8 sequence (P57105 8-110, limits assumed, looked up): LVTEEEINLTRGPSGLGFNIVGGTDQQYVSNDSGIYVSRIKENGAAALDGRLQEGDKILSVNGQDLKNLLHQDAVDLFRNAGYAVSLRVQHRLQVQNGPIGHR

TJP2_1, Q9UDY2 = biological target: TJP2_1, Q9UDY2
Sequence of TJP2_1, Q9UDY2 (Q9UDY2 24-128): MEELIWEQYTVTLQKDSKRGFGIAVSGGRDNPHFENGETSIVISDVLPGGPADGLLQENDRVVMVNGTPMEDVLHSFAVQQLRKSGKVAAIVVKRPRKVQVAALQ

TJP3_3, O95049 = biological target: T9, TJP3_3, O95049
T9 sequence (O95049 375-456, limits assumed, looked up): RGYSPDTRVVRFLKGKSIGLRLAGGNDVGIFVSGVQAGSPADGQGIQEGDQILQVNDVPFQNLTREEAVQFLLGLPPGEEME

pKd (DFNB31_1, Q9P202)	pKd (DLG1_2, Q12959)	pKd (DLG4_2, P78352)	pKd (FRMPD2_1, Q68DX3)	pKd (FRMPD2_3, Q68DX3)	pKd (FRMPD3, Q5JV73)	pKd (FRMPD4, Q14CM0)	pKd (HTRA2, O43464)	pKd (IL16_3, Q14005)	pKd (Inadl_10, Q8NI35)	pKd (Inadl_5, Q8NI35)	pKd (Inadl_8, Q8NI35)	pKd (LIN7C, Q9NUP9)	pKd (LNX1_1, Q8TBB1)	pKd (LRRC7, Q96NW7)	pKd (MAGI1_1, Q96QZ7)	pKd (MAGI3_2, Q5TCQ9)	pKd (MPDZ_12, O75970)	pKd (NHERF4_1, Q86UT5-2)	pKd (PDZRN4_1, Q6ZMN7)	Binder	other results
below the threshold	3.49	below the threshold	4.1	3.67	3.89	3.7	below the threshold	below the threshold	below the threshold	below the threshold	below the threshold	below the threshold	below the threshold	below the threshold	below the threshold	below the threshold	3.5	3.57	below the threshold	QKAPTKEFYA [SDC2, P34741]	pKd (PICK1, Q9NRD5): below the threshold; pKd (RHPN1, Q8TCX5): below the threshold; pKd (SCRIB_2, Q14160): below the threshold; pKd (SHANK1, Q9Y566): 3.53; pKd (SNTG2, Q9NY99): below the threshold; pKd (SYNJ2BP, P57105): below the threshold; pKd (TJP2_1, Q9UDY2): below the threshold; pKd (TJP3_3, O95049): below the threshold
3.47	4.45	4.2	below the threshold	below the threshold	below the threshold	3.68	below the threshold	below the threshold	below the threshold	below the threshold	below the threshold	below the threshold	4.19	3.74	below the threshold	below the threshold	below the threshold	4	below the threshold	AAVENKVTDL [PLXNB1, O43157]	pKd (PICK1, Q9NRD5): below the threshold; pKd (RHPN1, Q8TCX5): 4.17; pKd (SCRIB_2, Q14160): 3.52; pKd (SHANK1, Q9Y566): below the threshold; pKd (SNTG2, Q9NY99): 3.98; pKd (SYNJ2BP, P57105): below the threshold; pKd (TJP2_1, Q9UDY2): below the threshold; pKd (TJP3_3, O95049): below the threshold

Second part, the binder before the results:

Binder	pKd (DFNB31_1, Q9P202)	pKd (DLG1_2, Q12959)	pKd (DLG4_2, P78352)	pKd (FRMPD2_1, Q68DX3)	pKd (FRMPD2_3, Q68DX3)	pKd (FRMPD3, Q5JV73)	pKd (FRMPD4, Q14CM0)	pKd (HTRA2, O43464)	pKd (IL16_3, Q14005)	pKd (Inadl_10, Q8NI35)	pKd (Inadl_5, Q8NI35)	pKd (Inadl_8, Q8NI35)	pKd (LIN7C, Q9NUP9)	pKd (LNX1_1, Q8TBB1)	pKd (LRRC7, Q96NW7)	pKd (MAGI1_1, Q96QZ7)	pKd (MAGI3_2, Q5TCQ9)	pKd (MPDZ_12, O75970)	pKd (NHERF4_1, Q86UT5-2)	pKd (PDZRN4_1, Q6ZMN7)	other results
PYPTADHMLA [JUP, P14923]	below the threshold	3.6	below the threshold	below the threshold	below the threshold	below the threshold	below the threshold	below the threshold	below the threshold	below the threshold	below the threshold	below the threshold	3.87	below the threshold	below the threshold	below the threshold	3.73	below the threshold	below the threshold	below the threshold	pKd (PICK1, Q9NRD5): below the threshold; pKd (RHPN1, Q8TCX5): below the threshold; pKd (SCRIB_2, Q14160): below the threshold; pKd (SHANK1, Q9Y566): below the threshold; pKd (SNTG2, Q9NY99): below the threshold; pKd (SYNJ2BP, P57105): below the threshold; pKd (TJP2_1, Q9UDY2): below the threshold; pKd (TJP3_3, O95049): below the threshold
TGLWKHETTV [ADGRA3, Q8IWK6]	3.9	5.48	5.41	below the threshold	below the threshold	below the threshold	below the threshold	below the threshold	below the threshold	below the threshold	below the threshold	below the threshold	4.6	3.78	3.82	below the threshold	5.48	below the threshold	below the threshold	4.56	pKd (PICK1, Q9NRD5): 4.16; pKd (RHPN1, Q8TCX5): 4.44; pKd (SCRIB_2, Q14160): 4.56; pKd (SHANK1, Q9Y566): below the threshold; pKd (SNTG2, Q9NY99): 4.25; pKd (SYNJ2BP, P57105): 5.19; pKd (TJP2_1, Q9UDY2): 3.65; pKd (TJP3_3, O95049): below the threshold
